Assay results from patent US7989587B2, “SSX-2 peptides presented by HLA class II molecules” (Ludwig Institute for Cancer Research Ltd., priority 1999, dated 2011).

Assays:
Format in all cases: cell-based, human
T cells = assay: BrdU proliferation assay of T cells with peptide or protein loaded autologous dendritic cells
Description: The peptides were then combined with autologous dendritic cells. These were obtained by isolating peripheral blood mononuclear cells (“PBMCs”), from HLA-DR+donors, using Ficoll-Hypaque methods. These PBMCs were then incubated for 1-2 hours at 37° C., on plastic surfaces. Adherent monocytes were then cultured for 5 days in medium that had been supplemented with interleukin-4 (IL-4) and GM-CSF. To elaborate, AIMV medium supplemented with 1000 U/ml of IL-4, and 1000 U/ml of GM-CSF was used. This incubation stimulates differentiation into dendritic cells.
Samples of dendritic cells (8×10^5) were then loaded with 50 μg/ml of […] added peptide. The loading proceeded for 2 hours, at 37° C., in medium supplemented with 1000 U/ml of TNF-α and 10,000 U/ml of IL-1β. Peptide pulsed dendritic cells were then washed twice, in excess peptide free medium. Then, autologous peripheral blood lymphocytes (4×10^7) were combined with 8×10^5 peptide loaded dendritic cells (ratio of 50:1), in medium which contained 5 ng/ml of IL-7 and 20 U/ml of IL-2. Incubation was carried out at 37° C.
Cultures were restimulated weekly with peptide loaded, irradiated PBMCs.
The ability of the peptides to form complexes with HLA-DR molecules and to stimulate CD4^+ cell proliferation was determined by measuring BrdU uptake.
The specificity of the resulting CD4^+ cells was then tested by combing them with autologous dendritic cells that had been loaded with peptide, admixed with full length recombinant SSX-2 protein, or with an unrelated protein.
The results presented in Example 4 led to additional experiments using T cells that had been isolated from two donors using standard protocols. In these experiments, autologous dendritic cells were prepared, as described, and combined with T cells whose proliferation was determined in a BrdU assay. […] The SSX-2 full length molecule provoked just slightly less than 60% proliferation, while the peptide mixture provoked about 85% proliferation.

CD4^+ T-cells = assay: IFN-γ ELISPOT assay of peptide-primed CD4+ T-cells; details: T-cells prestimulated with p45-59; autologous and allogeneic DC
Description: PBMC from patients were isolated by Ficoll-Paque™ PLUS separation (Amersham Pharmacia Biotech AB, Uppsala, Sweden). For in-vitro priming, 1×10^7 and 2×10^6 unseparated PBMC, respectively, were suspended in 500 μl serum-free medium (X-Vivo 15 (Biowhittaker Europe s.p.r.l., Verviers, Belgium) supplemented with 2 mM L-glutamine (Gibco) and 1% penicillin/streptomycin (Gibco). For pulsing, the pool of the 3 SSX2-derived peptides (each at a concentration of 2 μg/ml) was added to the suspension of 1×10^7 cells, while the suspension of 2×10^6 PBMC was pulsed with the mix of 7 peptides (each at 2 μg/ml) derived from the pp65 antigen of the human CMV. Pulsing was performed for 90-120 minutes at 37° C. Thereafter the pulsed cells were washed once with serum-free medium and suspended for cultivation in X-Vivo 15 T-cell medium (Biowhittaker) supplemented with 10% human AB serum (Biowhittaker) and 6.7 ng/ml IL-7 (R&D systems). The 1×10^7 SSX2-pulsed PBMC were suspended in 3.75 ml T-cell medium and plated into 5 wells (0.75 ml/well) of a 48-well Nuncclone™ plate (Nunc GmbH & Co KG.). The 2×10^6 pp65-pulsed PBMC were plated into 1 well (0.75 ml). The remaining PBMC from the patients or donors, respectively, were divided into at least 3 aliquots of 1×10^7 PBMC and frozen until used for restimulation and in the T-cell assays. The peptide-pulsed PBMC which served both as APC and as a source for the T-cells to be used in the ELISPOT assay, were cultured at 37° C. One day after the stimulation was started, each well was supplemented with 250 μl X-Vivo 15 medium supplemented with 80 U/ml IL-2 (R&D Systems) resulting in a final concentration of 20 U/ml IL-2. The cells were incubated for 6 days under occasional microscopic control. On day 7 and before each ELISPOT assay, respectively, the percentage of CD4^+ T-cells in the culture well was determined. On day 7, cells were restimulated with autologous PBMC that had been pulsed with the appropriate peptides under the same conditions as described for day 0/1 at a CD4^+/APC ratio of 1:1. On day 14, the first ELISPOT assay was performed. To this end, the cultured cells were harvested from the respective wells and the primed CD4^+ cells were used as effectors in the ELISPOT assay. The remaining cells were restimulated once more using conditions as described before. […] no specific reactivity was shown by day 21, the stimulation was repeated weekly until all CD4^+ cells were consumed.
At least three IFN-γ ELISPOT assays were performed on days 14, 21 and 28, respectively. All tests were run in triplicates in order to determine mean values and standard deviations. Assays were performed in nitrocellulose-lined 96-well plates (MAHA S45 by Millipore, Bedford Mass., USA). The wells were pre-coated overnight with PBS (50 μl/well) containing an anti-IFN-γ capture antibody at the dilution recommended in the supplier's instructions (Mabtech AB, Nacka, Sweden). To block unspecific binding, the wells were then incubated with 10% human AB^+ serum for 1 h at 37° C. For the priming of effector cells, 2.5×10^4 CD4^+ T-cell were harvested, washed once to remove the cytokines, and were tested for specific recognition of the corresponding antigen. To this end, peptide-primed CD4^+ cells were harvested, washed once to remove cytokines, resuspended, and 50 μl of the cell suspension in X-Vivo 15 medium were added to each well. […]

[1] = system: SSX-2 37-51 specific DR3 restricted CD4+ T cells; assay: Recognition of recombinant protein loaded EBV cells, IFN-γ ELISA; details: FIG. 9C, FIG. 10C
Description: For intracellular cytokine secretion detection, T cells were stimulated in the absence or in the presence of peptides at the indicated dose during 4 h as described previously (Ayyoub M, et al., J Clin Invest., 2004; 113 (8): 1225-33, see examples above). One hour after the beginning of the incubation, Brefeldin A ([…], Sigma) was added to inhibit cytokine secretion. After incubation, cells were stained with anti-CD4 mAb (BD Biosciences, San Diego, Calif.) for 20 min at 4° C. and fixed using formaldehyde, permeabilized with saponine (Sigma, 0.1% in PBS 5% FCS), stained with anti IFN-γ mAb (BD Biosciences) and analyzed by flow cytometry. Data analysis was performed using Cell Quest software. IFN-γ secretion was assessed as described (Ayyoub M, et al., J Clin Invest., 2004; 113 (8): 1225-33). T cells (10,000/well) and EBV transformed B cells (EBV) used as antigen-presenting cells (APC, 10,000/well) were incubated in the absence or in the presence of peptides at the indicated dose in 96-well round-bottom plates in […] of medium. In some experiments tumor cells were used as APC. […] After 24 h incubation at 37° C., culture supernants were collected and the content of IFN-g determined by ELISA (BioSource International, Camarillo, Calif., USA). […]

B1: SSX-2 full length molecule: full length recombinant SSX-2 protein (protein, UniProt Q16385 1-188, looked up)
chain: MNGDDAFARRPTVGAQIPEKIQKAFDDIAKYFSKEEWEKMKASEKIFYVYMKRKYEAMTKLGFKATLPPFMCNKRAEDFQGNDLDNDPNRGNQVERPQMTFGRLQGISPKIMPKKPAEEGNDSEEVPEASGPQNDGKELCPPGKPTTSEKIHERSGPKRGEHAWTHRLRERKQLVIYEEISDPEEDDE
modifications: full-length
notes: full length recombinant SSX-2 protein
proliferation (T cells; first set of experiments, mixture of the 5 peptides of Example 4 compared to equal amount of protein): less than 60%
T cell proliferation induced by pulsed dendritic cells (T cells; six individual experiments, versus other peptides or TALL): greater T cell proliferation
T-cell response to dendritic cells pulsed with whole protein (CD4^+ T-cells): induced a significant T-cell response
processing and presentation of recombinant protein by DR3+ EBV cells, recognition by specific CD4+ T cells [1]: efficiently process
